# From the supplement of paper PMC6757056
# ± gives the standard deviation of the averaged measurements.
# B1: library; a variant is named by its letters at N, in order (parent)
# chain: GCUGUCACCGGUGCUUGGUACGUUAUAUUCAGCCGGUCUGAUGAGUCUNNNNNNAGACGAAACAGC
# Experiments:
# [1] = variants of: B1; experiment: FACS-Seq fitted mean relative fluorescence mCherry/BFP without ligand (log10 relative fluorescence); HEK293T overexpressing SLC46A1; higher = higher reporter protein expression; settings: without (6R,S)-folinic acid; ligand present: no
# Procedure, shortened: (§1)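 Genomic DNA from 6 mCherry/BFP sort bins was PCR-amplified, barcoded and sequenced on MiSeq. The sorted cells were enriched HEK293T libraries, lentivirally transduced with a ribozyme-switch mCherry reporter and an EF1α-BFP marker, incubated with or without ligand for 48 h. Fluorescence derives from a normal fit to the bin counts. The fit was on log10(mCherry/BFP), and means were scaled to five spiked-in control ribozymes.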
# [2] = variants of: B1; experiment: normalized RNA/DNA level without ligand (relative to sTRSVctl = 100) (log10 (% of sTRSVctl)); HEK293T overexpressing SLC46A1; higher = less ribozyme self-cleavage, higher mRNA level; settings: without (6R,S)-folinic acid; ligand present: no
# Method: (§2)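 Hammerhead (sTRSV) ribozyme switch libraries with a ligand aptamer grafted on stem I and a randomized N4-6 loop II, cloned into the 3' UTR of mCherry and transiently transfected into HEK293T cells; RNA-Seq 72 h post transfection with ligand added 1 h before transfection; RNA read count / plasmid DNA read count normalized to the non-cleaving sTRSVctl (x100), log10; sequences with >100 DNA reads. FACS-Seq: lentiviral library sorted into 6 bins after 48 h ligand, log-normal fit mean of mCherry/BFP scaled to controls. Printed sequences are partial switch sequences.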
# [3] = variants of: B1; experiment: FACS-Seq fitted mean relative fluorescence mCherry/BFP with ligand (log10 relative fluorescence); HEK293T overexpressing SLC46A1; ligand concentration (+) FACS-Seq: 6 mM; higher = higher reporter protein expression; settings: with (6R,S)-folinic acid; ligand present: yes
# Procedure, shortened: as §1
# [4] = variants of: B1; experiment: normalized RNA/DNA level with ligand (relative to sTRSVctl = 100) (log10 (% of sTRSVctl)); HEK293T overexpressing SLC46A1; ligand concentration (+) RNA-Seq: 6 mM; higher = less ribozyme self-cleavage, higher mRNA level; settings: with (6R,S)-folinic acid; ligand present: yes
# Method: as §2
Variant,FACS-Seq fitted mean (log10) [1],normalized RNA/DNA level without ligand (log10) [2],FACS-Seq fitted mean (log10) [3],normalized RNA/DNA level with ligand (log10) [4]
CAUAAU,0.15 ± 0.15,1.955 ± 0.011,0.294 ± 0.038,1.997 ± 0.013
CAUAAC,0.339 ± 0.16,1.973 ± 0.0067,0.355 ± 0.045,1.97 ± 0.038
CAUAAA,0.548 ± 0.05,1.9396 ± 0.0016,0.402 ± 0.075,1.96 ± 0.033
UAGGUG,0.228 ± 0.037,1.68 ± 0.017,0.559 ± 0.21,1.96 ± 0.033
UAGGUA,0.246 ± 0.04,1.878 ± 0.0067,0.0784 ± 0.099,1.98 ± 0.031
AAGUGU,0.173 ± 0.16,1.94 ± 0.015,0.597 ± 0.37,2.01 ± 0.029
AAGUGA,0.288 ± 0.021,1.952 ± 0.003,0.42 ± 0.11,2.03 ± 0.021
AAGAAA,0.107 ± 0.0018,1.935 ± 0.0037,0.0952 ± 0.071,1.99 ± 0.021
AAGAAG,0.22 ± 0.028,1.8593 ± 0.00099,0.315 ± 0.053,2 ± 0.052
AAGAAC,0.369 ± 0.066,1.985 ± 0.012,0.624 ± 0.1,2 ± 0.038
UAGAUG,0.3 ± 0.084,1.702 ± 0.0024,0.477 ± 0.13,1.97 ± 0.043
UAGUUG,0.194 ± 0.067,1.768 ± 0.016,0.229 ± 0.0032,1.96 ± 0.021
UACUGC,0.238 ± 0.013,2.01 ± 0.0074,0.329 ± 0.25,2.02 ± 0.049
UACUGG,0.0573 ± 0.058,1.65 ± 0.049,0.433 ± 0.099,1.97 ± 0.039
AAGAGA,0.0158 ± 0.096,1.929 ± 0.0075,0.157 ± 0.024,2.03 ± 0.049
AAGAGU,0.413 ± 0.019,1.924 ± 0.0098,0.369 ± 0.0072,2.02 ± 0.047
AAGAGG,0.589 ± 0.041,1.843 ± 0.0052,0.632 ± 0.11,1.99 ± 0.021
UAGUGC,0.371 ± 0.0073,1.949 ± 0.011,0.493 ± 0.034,2 ± 0.051
UAGUGG,-0.0676 ± 0.055,1.56 ± 0.021,0.623 ± 0.023,1.89 ± 0.046
GAGCGA,0.146 ± 0.064,1.997 ± 0.0086,0.145 ± 0.15,2.035 ± 0.011
GAGCUA,0.516 ± 0.2,2.0209 ± 0.0014,0.415 ± 0.15,2.04 ± 0.035
GAGUUG,0.407 ± 0.032,1.968 ± 0.0093,0.387 ± 0.15,2.03 ± 0.039
CAGGUA,0.0884 ± 0.016,1.667 ± 0.0023,0.0948 ± 0.22,1.806 ± 0.013
CAGGUG,0.231 ± 0.12,1.96 ± 0.025,0.385 ± 0.089,1.992 ± 0.016

Variant,FACS-Seq fitted mean (log10) [1],normalized RNA/DNA level without ligand (log10) [2],FACS-Seq fitted mean (log10) [3],normalized RNA/DNA level with ligand (log10) [4]
AAGGAA,0.513 ± 0.14,1.937 ± 0.01,0.429 ± 0.1,2 ± 0.023
AAGGAU,0.466 ± 0.0051,1.917 ± 0.0072,0.53 ± 0.073,1.966 ± 0.013
AAGGAG,0.211 ± 0.081,1.789 ± 0.017,0.263 ± 0.14,2 ± 0.046
UAUAAU,0.283 ± 0.048,1.941 ± 0.0058,0.412 ± 0.033,1.996 ± 0.016
UAUAAA,0.216 ± 0.075,1.92 ± 0.0034,0.0605 ± 0.19,1.97 ± 0.022
UAUAAG,0.158 ± 0.15,1.688 ± 0.0045,0.476 ± 0.26,1.93 ± 0.027
UAGUAA,0.0937 ± 0.063,1.937 ± 0.009,0.531 ± 0.11,1.995 ± 0.016
UAGUAG,0.108 ± 0.076,1.68 ± 0.011,0.525 ± 0.14,1.93 ± 0.036
UAGUAU,0.347 ± 0.059,1.931 ± 0.0038,0.553 ± 0.11,2.006 ± 0.018
GAGACU,0.361 ± 0.041,2.022 ± 0.0074,0.232 ± 0.024,2.02 ± 0.022
GAUACA,0.251 ± 0.036,1.974 ± 0.0043,0.585 ± 0.09,1.98 ± 0.047
GAUACG,0.356 ± 0.069,1.9665 ± 0.00032,0.274 ± 0.0064,2 ± 0.0056
UACUUG,0.275 ± 0.057,1.78 ± 0.022,0.607 ± 0.16,1.98 ± 0.045
AAGGCC,0.18 ± 0.073,2.059 ± 0.012,0.288 ± 0.18,2.04 ± 0.081
AAGCCU,0.313 ± 0.032,2.056 ± 0.015,0.326 ± 0.052,2.03 ± 0.027
GAGGUU,-0.16 ± 0.053,1.991 ± 0.0089,-0.382 ± 0.15,2 ± 0.027
GAGGUG,0.324 ± 0.045,1.967 ± 0.0026,0.505 ± 0.25,2.04 ± 0.043
GAGGUA,0.345 ± 0.029,1.844 ± 0.015,0.341 ± 0.17,1.92 ± 0.033
GAGUCA,-0.101 ± 0.0028,1.998 ± 0.011,-0.24 ± 0.16,2.01 ± 0.0086
GAGUCC,0.0836 ± 0.051,2.04 ± 0.027,0.569 ± 0.064,2.04 ± 0.03
CAGCCU,0.13 ± 0.12,2.052 ± 0.016,-0.235 ± 0.22,2.05 ± 0.061
CAGAAA,0.257 ± 0.038,1.944 ± 0.0067,0.441 ± 0.2,1.97 ± 0.043
CAGAAU,0.372 ± 0.044,1.921 ± 0.0042,0.495 ± 0.24,1.951 ± 0.0096
CAGUUC,-0.0369 ± 0.035,2.027 ± 0.017,-0.16 ± 0.081,1.983 ± 0.019

Variant,FACS-Seq fitted mean (log10) [1],normalized RNA/DNA level without ligand (log10) [2],FACS-Seq fitted mean (log10) [3],normalized RNA/DNA level with ligand (log10) [4]
CAGUUA,0.197 ± 0.022,1.95 ± 0.02,0.573 ± 0.13,1.99 ± 0.038
CAGGAC,0.301 ± 0.073,1.97 ± 0.022,0.0891 ± 0.079,1.97 ± 0.078
AAGGGU,-0.0258 ± 0.095,1.952 ± 0.0044,-0.308 ± 0.14,2.02 ± 0.032
AAGGGA,0.125 ± 0.041,1.949 ± 0.0036,0.0354 ± 0.14,2.03 ± 0.03
AAGUAA,0.225 ± 0.044,1.94 ± 0.021,0.18 ± 0.26,2 ± 0.043
AAGUAG,0.445 ± 0.099,1.89 ± 0.021,0.443 ± 0.18,1.987 ± 0.018
GAGAAA,0.129 ± 0.016,1.958 ± 0.011,0.0474 ± 0.047,1.996 ± 0.01
GAGAAC,0.435 ± 0.033,1.964 ± 0.0051,0.598 ± 0.32,2.02 ± 0.045
GAGAAG,0.0112 ± 0.083,1.905 ± 0.0077,0.219 ± 0.32,2.02 ± 0.029
AAGCAU,0.218 ± 0.067,1.953 ± 0.019,0.102 ± 0.024,2.01 ± 0.039
AAGCAA,0.352 ± 0.078,1.964 ± 0.015,0.361 ± 0.1,1.994 ± 0.012
AAGGUC,0.209 ± 0.03,2.03 ± 0.013,0.178 ± 0.099,2 ± 0.027
AAGGUG,0.462 ± 0.049,1.827 ± 0.011,0.597 ± 0.51,1.98 ± 0.04
AAGGUA,0.34 ± 0.014,1.74 ± 0.024,0.228 ± 0.14,1.83 ± 0.025
GAGGGU,0.338 ± 0.027,2.001 ± 0.016,0.556 ± 0.037,2.04 ± 0.041
GAGGGA,0.161 ± 0.042,1.969 ± 0.017,0.0592 ± 0.019,2.04 ± 0.028
CAGUCG,0.4924 ± 0.0036,2.022 ± 0.01,0.422 ± 0.19,2.037 ± 0.018
GAUAAC,0.223 ± 0.036,1.972 ± 0.012,0.5 ± 0.022,2.01 ± 0.014
GAUAAA,0.3694 ± 0.0011,1.956 ± 0.0085,0.397 ± 0.027,2 ± 0.034
GAUAAU,0.0792 ± 0.026,1.97 ± 0.02,0.23 ± 0.02,2.01 ± 0.037
AAUACU,0.3 ± 0.014,1.995 ± 0.017,0.384 ± 0.13,1.99 ± 0.026
AAUACC,0.72 ± 0.071,2.028 ± 0.004,0.469 ± 0.062,2.03 ± 0.031
GAGGAU,0.372 ± 0.013,1.963 ± 0.0066,0.0226 ± 0.65,2.02 ± 0.033
